Measured values as given in PMC9482650, “Quantitative fragmentomics allow affinity mapping of interactomes” (Nature Communications, 2022).
Residue numbers refer to the chain shown, from its start. Values belong to the binder of their own block, whether it stands above or below them.

Experiments:
Experiment in all cases: holdup assay
Set-up in all cases: key: below the threshold = too weak to quantify, mostly under pKd 3.1 to 4
Conditions in all cases: plain residues with an end cap or a label only (N-terminal biotin on a linker: ado-ado)
[1] = biological target: T1, APBA1_2, Q02410
T1 sequence (Q02410 742-832, limits assumed, looked up): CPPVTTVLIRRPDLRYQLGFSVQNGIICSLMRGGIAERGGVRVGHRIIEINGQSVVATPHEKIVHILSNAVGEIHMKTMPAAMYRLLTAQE

[2] = biological target: T2, APBA2_1, Q99767
T2 sequence (Q99767 563-664, limits assumed, looked up): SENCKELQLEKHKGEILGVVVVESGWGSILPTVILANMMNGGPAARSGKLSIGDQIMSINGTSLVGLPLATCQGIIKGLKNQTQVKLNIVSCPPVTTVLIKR

[3] = biological target: T3, APBA2_2, Q99767
T3 sequence (Q99767 654-744, limits assumed, looked up): T1 sequence (Q02410 742-832, limits assumed, looked up) with R10K, R15K, P59A, H65Q, I66A, A70S, Y84F, A89G

[4] = biological target: T4, DLG3_2, Q92796
T4 sequence (Q92796 221-321, limits assumed, looked up): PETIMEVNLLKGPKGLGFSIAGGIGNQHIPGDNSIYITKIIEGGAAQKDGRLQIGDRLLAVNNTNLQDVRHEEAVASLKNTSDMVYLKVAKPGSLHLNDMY

[5] = biological target: DLG4_1, P78352
[6] = biological target: T5, FRMPD1, Q5SYB0
T5 sequence (Q5SYB0 52-145, limits assumed, looked up): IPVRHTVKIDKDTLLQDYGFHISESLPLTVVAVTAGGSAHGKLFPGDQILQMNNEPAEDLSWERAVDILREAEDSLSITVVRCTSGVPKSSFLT

[7] = biological target: FRMPD3, Q5JV73
[8] = biological target: T6, GRIP1_5, Q9Y3R0
T6 sequence (Q9Y3R0 568-668, limits assumed, looked up): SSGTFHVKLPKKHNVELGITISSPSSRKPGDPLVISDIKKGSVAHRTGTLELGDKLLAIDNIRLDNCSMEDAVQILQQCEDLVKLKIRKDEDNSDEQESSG

[9] = biological target: GRIP2_5, Q9C0E4
[10] = biological target: Inadl_6, Q8NI35
[11] = biological target: LNX1_2, Q8TBB1
[12] = biological target: T7, LNX2_2, Q8N448
T7 sequence (Q8N448 334-432, limits assumed, looked up): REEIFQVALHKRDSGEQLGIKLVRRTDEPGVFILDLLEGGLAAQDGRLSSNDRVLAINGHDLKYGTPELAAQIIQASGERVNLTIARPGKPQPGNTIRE

[13] = biological target: T8, LRRC7, Q96NW7
T8 sequence (Q96NW7 1440-1537, limits assumed, looked up): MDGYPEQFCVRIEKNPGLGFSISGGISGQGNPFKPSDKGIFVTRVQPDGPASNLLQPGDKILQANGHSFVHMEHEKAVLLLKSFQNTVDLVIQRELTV

[14] = biological target: MAGI2_4, Q86UL8
[15] = biological target: MAGI2_5, Q86UL8
[16] = biological target: MAST2, Q6P0Q8
[17] = biological target: T9, MPP2, Q14168
T9 sequence (Q14168 180-250, limits assumed, looked up): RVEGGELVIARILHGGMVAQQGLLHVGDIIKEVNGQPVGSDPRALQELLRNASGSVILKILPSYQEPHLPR

[18] = biological target: T10, NHERF3_4, Q5T2W1
T10 sequence (Q5T2W1 373-468, limits assumed, looked up): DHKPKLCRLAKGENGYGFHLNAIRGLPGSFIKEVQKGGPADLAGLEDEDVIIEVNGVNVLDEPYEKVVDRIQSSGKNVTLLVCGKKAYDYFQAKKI

[19] = biological target: NOS1, P29475
[20] = biological target: PDLIM1, O00151
[21] = biological target: T11, RADIL, Q96JH8
T11 sequence (Q96JH8 971-1071, limits assumed, looked up): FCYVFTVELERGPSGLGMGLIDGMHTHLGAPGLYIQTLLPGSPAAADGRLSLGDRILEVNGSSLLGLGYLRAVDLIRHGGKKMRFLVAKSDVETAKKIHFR

[22] = biological target: SCRIB_3, Q14160
[23] = biological target: T12, SIPA1L2, Q9P2F8
T12 sequence (Q9P2F8 945-1036, limits assumed, looked up): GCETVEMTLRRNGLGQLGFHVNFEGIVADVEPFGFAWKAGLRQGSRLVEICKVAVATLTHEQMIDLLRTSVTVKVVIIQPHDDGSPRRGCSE

[24] = biological target: T13, TIAM2, Q8IVF5
T13 sequence (Q8IVF5 885-986, limits assumed, looked up): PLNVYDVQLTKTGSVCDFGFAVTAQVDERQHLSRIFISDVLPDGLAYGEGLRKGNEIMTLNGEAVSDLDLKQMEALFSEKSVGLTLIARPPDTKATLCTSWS

[25] = biological target: TJP1_2, Q07157
Chain of TJP1_2, Q07157 (Q07157 181-274): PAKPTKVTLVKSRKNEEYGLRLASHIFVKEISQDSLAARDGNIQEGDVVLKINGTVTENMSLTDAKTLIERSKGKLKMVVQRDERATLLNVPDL

Chain of NOS1, P29475 (P29475 9-101): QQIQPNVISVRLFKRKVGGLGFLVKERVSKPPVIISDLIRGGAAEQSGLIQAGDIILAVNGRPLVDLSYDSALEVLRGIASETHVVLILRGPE
Chain of DLG4_1, P78352 (P78352 62-152): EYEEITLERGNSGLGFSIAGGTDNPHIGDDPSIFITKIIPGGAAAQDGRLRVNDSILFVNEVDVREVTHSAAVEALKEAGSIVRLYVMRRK
Chain of MAGI2_4, Q86UL8 (Q86UL8 772-865): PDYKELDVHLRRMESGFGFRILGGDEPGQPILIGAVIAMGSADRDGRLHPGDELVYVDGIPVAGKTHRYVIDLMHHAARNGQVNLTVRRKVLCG
Chain of MAST2, Q6P0Q8 (Q6P0Q8 1099-1202): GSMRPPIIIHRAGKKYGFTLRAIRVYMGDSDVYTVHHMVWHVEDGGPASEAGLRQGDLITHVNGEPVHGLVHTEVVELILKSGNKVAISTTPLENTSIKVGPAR
Chain of LNX1_2, Q8TBB1 (Q8TBB1 371-470): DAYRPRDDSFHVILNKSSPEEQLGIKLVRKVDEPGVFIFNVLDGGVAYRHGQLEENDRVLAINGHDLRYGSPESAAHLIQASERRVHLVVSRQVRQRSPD
Chain of SCRIB_3, Q14160 (Q14160 999-1103): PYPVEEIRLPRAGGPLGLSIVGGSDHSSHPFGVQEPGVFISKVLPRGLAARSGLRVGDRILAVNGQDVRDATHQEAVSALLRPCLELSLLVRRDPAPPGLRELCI
Chain of FRMPD3, Q5JV73 (Q5JV73 12-100): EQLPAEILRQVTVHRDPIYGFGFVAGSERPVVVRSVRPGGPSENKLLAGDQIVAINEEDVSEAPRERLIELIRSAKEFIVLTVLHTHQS
Chain of GRIP2_5, Q9C0E4 (Q9C0E4 544-642): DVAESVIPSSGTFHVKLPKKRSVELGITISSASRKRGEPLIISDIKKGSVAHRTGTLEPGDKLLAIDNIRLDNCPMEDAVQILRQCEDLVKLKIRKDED
Chain of Inadl_6, Q8NI35 (Q8NI35 1058-1167): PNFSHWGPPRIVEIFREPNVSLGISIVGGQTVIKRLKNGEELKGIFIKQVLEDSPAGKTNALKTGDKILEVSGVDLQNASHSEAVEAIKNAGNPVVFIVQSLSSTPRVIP
Chain of MAGI2_5, Q86UL8 (Q86UL8 915-1017): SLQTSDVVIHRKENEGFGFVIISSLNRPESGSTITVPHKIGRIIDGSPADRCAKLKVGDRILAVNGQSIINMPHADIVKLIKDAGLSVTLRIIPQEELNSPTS
Chain of PDLIM1, O00151 (O00151 1-87): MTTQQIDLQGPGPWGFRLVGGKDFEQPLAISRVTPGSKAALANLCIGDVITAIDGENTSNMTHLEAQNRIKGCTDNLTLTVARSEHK

- pKd [1]: below the threshold
- pKd [2]: below the threshold
- pKd [3]: below the threshold
- pKd [4]: 4.09
- pKd [5]: below the threshold
- pKd [6]: below the threshold
- pKd [7]: below the threshold
- pKd [8]: below the threshold
- pKd [9]: below the threshold
- pKd [10]: below the threshold
- pKd [11]: below the threshold
- pKd [12]: 4.18
- pKd [13]: below the threshold
- pKd [14]: below the threshold
- pKd [15]: below the threshold
- pKd [16]: 4.14
- pKd [17]: below the threshold
- pKd [18]: below the threshold
- pKd [19]: below the threshold
- pKd [20]: below the threshold
- pKd [21]: below the threshold
- pKd [22]: 3.84
- pKd [23]: below the threshold
- pKd [24]: 3.98
- pKd [25]: below the threshold
B1: TECPR2, O15040 (peptide)
chain: EDLEDEWEVI

- pKd [1]: below the threshold
- pKd [2]: below the threshold
- pKd [3]: below the threshold
- pKd [4]: 4.26
- pKd [5]: 3.7
- pKd [6]: below the threshold
- pKd [7]: below the threshold
- pKd [8]: below the threshold
- pKd [9]: below the threshold
- pKd [10]: below the threshold
- pKd [11]: below the threshold
- pKd [12]: 3.78
- pKd [13]: below the threshold
- pKd [14]: 4.17
- pKd [15]: 3.73
- pKd [16]: 4.79
- pKd [17]: below the threshold
- pKd [18]: below the threshold
- pKd [19]: 3.65
- pKd [20]: below the threshold
- pKd [21]: 3.49
- pKd [22]: below the threshold
- pKd [23]: below the threshold
- pKd [24]: 4.13
- pKd [25]: below the threshold
B2: ABCA2, Q9BZC7 (peptide)
chain: QLSFNTDTLC
